This passage reports strength of band (band of G6sec1 eluate defined as 1) (relative to G6sec1 = 1) results from US20040115763A1.

The assay concerns the target secreted FLAG peptide-fused G6 polypeptide G6sec2 (produced with the pVL1393-F2G6sec2-derived recombinant virus) (human) (UniProt Q9BYG0). Description: Western blotting with anti-FLAG antibody. A general note: A western blot detects proteins with antibodies after separation by electrophoresis.

Consider “anti-FLAG peptide antibody (of YEAST AMINO-TERMINAL FLAG EXPRESSION KIT, manufactured by SIGMA)”, for which the strength of band (band of G6sec1 eluate defined as 1) (relative to G6sec1 = 1) stood at 1.05.
